Values of other authors, collected in patent publication US10507248B2, “Hydrophobic core carrier compositions for delivery of therapeutic agents, methods of making and using the same” (PharmaIn Corporation, priority 2005, dated 2019).

Settings: in vivo

B1: native EGF: native Epidermal Growth Factor with short biological half-life (protein, UniProt P01133 23-1207, looked up)
Pro-epidermal growth factor: PQHWSCPEGTLAGNGNSTCVGPAPFLIFSHGNSIFRIDTEGTNYEQLVVDAGVSVIMDFHYNEKRIYWVDLERQLLQRVFLNGSRQERVCNIEKNVSGMAINWINEEVIWSNQQEGIITVTDMKGNNSHILLSALKYPANVAVDPVERFIFWSSEVAGSLYRADLDGVGVKALLETSEKITAVSLDVLDKRLFWIQYNREGSNSLICSCDYDGGSVHISKHPTQHNLFAMSLFGDRIFYSTWKMKTIWIANKHTGKDMVRINLHSSFVPLGELKVVHPLAQPKAEDDTWEPEQKLCKLRKGNCSSTVCGQDLQSHLCMCAEGYALSRDRKYCEDVNECAFWNHGCTLGCKNTPGSYYCTCPVGFVLLPDGKRCHQLVSCPRNVSECSHDCVLTSEGPLCFCPEGSVLERDGKTCSGCSSPDNGGCSQLCVPLSPVSWECDCFPGYDLQLDEKSCAASGPQPFLLFANSQDIRHMHFDGTDYGTLLSQQMGMVYALDHDPVENKIYFAHTALKWIERANMDGSQRERLIEEGVDVPEGLAVDWIGRRFYWTDRGKSLIGRSDLNGKRSKIITKENISQPRGIAVHPMAKRLFWTDTGINPRIESSSLQGLGRLVIASSDLIWPSGITIDFLTDKLYWCDAKQSVIEMANLDGSKRRRLTQNDVGHPFAVAVFEDYVWFSDWAMPSVMRVNKRTGKDRVRLQGSMLKPSSLVVVHPLAKPGADPCLYQNGGCEHICKKRLGTAWCSCREGFMKASDGKTCLALDGHQLLAGGEVDLKNQVTPLDILSKTRVSEDNITESQHMLVAEIMVSDQDDCAPVGCSMYARCISEGEDATCQCLKGFAGDGKLCSDIDECEMGVPVCPPASSKCINTEGGYVCRCSEGYQGDGIHCLDIDECQLGEHSCGENASCTNTEGGYTCMCAGRLSEPGLICPDSTPPPHLREDDHHYSVRNSDSECPLSHDGYCLHDGVCMYIEALDKYACNCVVGYIGERCQYRDLKWWELRHAGHGQQQKVIVVAVCVVVLVMLLLLSLWGAHYYRTQKLLSKNPKNPYEESSRDVRSRRPADTEDGMSSCPQPWFVVIKEHQDLKNGGQPVAGEDGQAADGSMQPTSWRQEPQLCGMGTEQGCWIPVSSDKGSCPQVMERSFHMPSYGTQTLEGGVEKPHSLLSANPLWQQRALDPPHQMELTQ
modifications: Pro-epidermal growth factor
- biological half-life: few minutes
